Results published in patent US20120093921A1, “IMMUNOGENIC COMPOSITIONS HAVING LOW SODIUM CHLORIDE CONCENTRATION” (GLAXOSMITHKLINE BIOLOGICALS S.A., priority 2009, published 2012).

Columns and labels:
[1] = Salting out / precipitation of antigen on reconstitution in adjuvant buffer (visual); type: physicochemical
Procedure: Accordingly, in one embodiment the antigen or antigenic preparation is any antigen which precipitates, coagulates or aggregates after being dissolved in a solution comprising a concentration of sodium chloride (NaCl) or wherein the ionic strength of the solution is greater than 5 mM, 10 mM, 15 mM, 20 mM, 30 mM, 40 mM, 50 mM, 60 mM, 70 mM, 80 mM, 90 mM or 100 mM. The person skilled in the art can determine whether an antigen meets this definition by dissolving and/or mixing an antigen in such a solution. […] An antigen which precipitates, coagulates or aggregates after being dissolved in a solution comprising a concentration of sodium chloride of 100 mM is one which, after 24 hours or less, can be seen to be precipitating by the cloudiness of the solution. In addition, aggregation that is not detectable visually may be observed using methods known to the skilled person which include, but are not limited to SEC-HPLC.
The resulting lyophilsation cake was reconstituted with 625 μl of aqueous adjuvant composition prepared as in Example 2 comprising 150 mM NaCl. The lyophilsation cake contained a 1.25 fold excess of antigen dose to have the right antigen/adjuvant ratio after reconstitution with a final composition of 16 mM Tris, 4 mM borate, 4% sucrose, 0.24% Poloxamer 188, 840 μg/ml CpG and 1000 μg/ml PRAME.
The resulting lyophilsation cake was reconstituted with 625 μl of ASA buffers (150 mM NaCl and sorbitol).
1. PRAME antigen reconstituted in ASA 150 mM NaCl buffer. 2. PRAME antigen reconstituted in ASA sorbitol buffer. 3. NYESO-1 antigen reconstituted in ASA 150 mM NaCl buffer. 4. NYESO-1 antigen reconstituted in ASA sorbitol buffer.
FIG. 4 is a photographic comparison between PRAME and NYESO-1 reconstituted in ASA (150 mM NaCl) and ASA (sorbitol). […] Similarly, NY-ESO reconstituted in ASA (150 mM NaCl) appears cloudy compared to NY-ESO antigen reconstituted in ASA (sorbitol).

[2] = test system: chicken Red Blood cells (RBC); assay: QS21 lytic activity, haemolysis assay (limit test); type: cell-based; conditions: example curve; OD of 0.12
Procedure: QS21 is known to lyse red blood cells (RBC).
QS21 lytic activity was measured by a haemolysis assay using chicken Red Blood cells (RBC). RBC were centrifuged at 550 g at 4° C. Supernatant was discarded. The pellet was carefully resuspended in PBS buffer to reach the initial volume and the same operation was repeated until supernatant was no longer red (generally 3 times). The pellet was stored at 4° C. for 3 to 4 days maximum if not used directly (and washed again the day it is used) or was diluted around 10 times in buffer if used the same day.
A QS21 dose range curve was prepared in ASA buffer (in salt or in sorbitol buffer following the ASA sample tested) extemporaneously and the adjuvant samples (containing a 50 μg or 90 μg equivalent of QS21 meaning the equivalent of 500 μl or 900 μl ASA) were prepared. Final volume was adjusted to 900 μl in standards and samples with adequate buffer (containing or not sorbitol as a function of the buffer of the sample tested). Due to its opalescence, ASA interferes in optical density (OD). […] Optical density at 540 nm was measured after centrifugation. […]
1. Limit of detection (LOD) was defined as the lowest concentration of QS21 leading to an OD: • Higher than the base level (OD>0.1) • Around three times higher than OD's buffer (the “o μg” QS21) • In the ascendant part of the curve • Determined for each test. […]

Substance	appearance after reconstitution ([1]; lyophilised with CpG, reconstituted in ASA (150 mM NaCl), compared to ASA (sorbitol), FIG. 4)	salting out in adjuvant composition ([1]; salt concentration reduced to 5 mM and sorbitol included (ASA sorbitol buffer), FIG. 4)	concentration of sodium chloride at which the antigens aggregate and precipitate ([1]; salting out, as low as)	Limit of Detection (lowest concentration of QS21 leading to OD above base level) [2]
PRAME: tumour protein antigen, described in U.S. Pat. No. 5,830,753; co-lyophilised with CpG 2006 in the examples	cloudy	prevents “salting out”	150000 µM	
QS21				0.9 µg
